The values that follow come from article PMC12463132 (Advanced Science, 2025).

Ends that are not written are not given here.

The assay addresses T1, Sec23a/Sec24a (lacking residues 1–340) (human, UniProt Q15436 1-765; O95486 341-1093).
T1 construct: Sec23a, human, full length (pFastBac1 vector); Sec24a, human, lacking residues 1-340; The results call the protein of the pull-downs 'Sec24a' or 'Sec24', the methods 'COPII protein'; also called COPII coat proteins Sec23a/Sec24a; COPII protein; source: Hi5 insect cells (baculovirus made in Sf9), purified (HisTrap, ion exchange, SEC)
The experiment in a line: pull-down; competition: phosphorylated GST-STING CTT on glutathione Sepharose 4B beads, IRF3 with Sec24; 20 mM HEPES-Na pH 7.4, 200 mM NaCl, 4 mM DTT, 0.1% Triton X-100, 4 °C; SDS-PAGE. Particulars: both partners purified.

T1 sequence (Q15436 whole entry, chain 1 of 2, the tested form may be a part): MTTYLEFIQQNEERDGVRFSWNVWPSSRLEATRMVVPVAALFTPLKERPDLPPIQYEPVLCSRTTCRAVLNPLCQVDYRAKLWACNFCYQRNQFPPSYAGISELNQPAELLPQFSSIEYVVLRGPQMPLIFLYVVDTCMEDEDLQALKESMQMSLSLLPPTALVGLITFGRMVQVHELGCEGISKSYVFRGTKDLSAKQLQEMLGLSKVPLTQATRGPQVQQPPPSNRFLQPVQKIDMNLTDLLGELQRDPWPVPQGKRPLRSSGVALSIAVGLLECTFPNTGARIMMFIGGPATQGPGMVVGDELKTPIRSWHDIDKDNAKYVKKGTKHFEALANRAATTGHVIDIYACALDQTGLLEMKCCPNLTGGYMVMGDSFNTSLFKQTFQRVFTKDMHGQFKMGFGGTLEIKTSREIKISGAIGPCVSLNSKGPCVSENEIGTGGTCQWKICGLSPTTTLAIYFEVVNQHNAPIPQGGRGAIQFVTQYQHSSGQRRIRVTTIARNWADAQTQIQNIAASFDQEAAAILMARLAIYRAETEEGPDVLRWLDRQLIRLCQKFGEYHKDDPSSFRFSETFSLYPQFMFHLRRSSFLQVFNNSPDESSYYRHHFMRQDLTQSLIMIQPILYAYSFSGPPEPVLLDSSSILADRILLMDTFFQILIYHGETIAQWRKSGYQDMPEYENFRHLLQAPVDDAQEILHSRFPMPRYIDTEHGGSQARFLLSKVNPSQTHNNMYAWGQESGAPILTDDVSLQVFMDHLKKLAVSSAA
T1 sequence (O95486 341-1093, chain 2 of 2): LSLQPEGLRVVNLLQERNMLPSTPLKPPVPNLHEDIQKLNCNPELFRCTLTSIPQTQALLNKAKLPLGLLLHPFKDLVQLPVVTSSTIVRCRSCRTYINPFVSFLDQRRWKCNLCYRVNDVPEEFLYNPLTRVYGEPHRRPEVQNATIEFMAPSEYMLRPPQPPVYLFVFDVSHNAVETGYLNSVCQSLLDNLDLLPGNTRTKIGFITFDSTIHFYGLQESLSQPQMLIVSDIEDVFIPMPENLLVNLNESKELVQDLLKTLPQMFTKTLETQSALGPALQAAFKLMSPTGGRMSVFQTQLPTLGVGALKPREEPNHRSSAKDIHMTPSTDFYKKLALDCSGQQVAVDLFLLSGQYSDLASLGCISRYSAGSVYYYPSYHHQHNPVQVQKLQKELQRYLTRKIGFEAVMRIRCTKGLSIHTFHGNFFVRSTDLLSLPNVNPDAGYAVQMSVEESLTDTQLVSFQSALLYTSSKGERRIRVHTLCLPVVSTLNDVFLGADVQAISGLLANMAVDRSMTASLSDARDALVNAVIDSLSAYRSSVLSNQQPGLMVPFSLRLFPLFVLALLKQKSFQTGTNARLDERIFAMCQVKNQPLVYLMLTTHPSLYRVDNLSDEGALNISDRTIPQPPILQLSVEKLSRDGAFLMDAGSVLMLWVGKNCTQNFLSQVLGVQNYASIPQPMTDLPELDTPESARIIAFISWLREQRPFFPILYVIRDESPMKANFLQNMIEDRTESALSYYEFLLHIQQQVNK

B1: GST‐tagged human STING CTT (residue number: 335–379), phosphorylated (domain or fragment, UniProt Q86WV6 335-379, looked up)
chain: QEEKEEVTVGSLKTSAVPSTSTMSQEPELLISGMEKPLPLRTDFS
modifications: also: GST-tagged, phosphorylated by TBK1, sites not given here
notes: STING, human, C-terminal tail, residues 335-379; also called phosphorylated STING CTT; phosphorylated GST‐STING protein; source: phosphorylated in vitro by GST-tagged human TBK1, used directly; not shown: GST, N-terminal, kept
Regarding B1, the binding result is reported as “binds”.
